# Source: US20220160939A1, “SELF-ASSEMBLING PEPTIDES AS BRONCHIAL OBSTRUCTION AGENTS” (3-D MATRIX, LTD., priority 2014, published 2022)
# Experiments:
# Assay type in all cases: physicochemical
# [1] = pH and appearance of 2.5% peptide solutions after adding 0.1 N NaOH
# Description: To adjust the pH level of the peptide solutions by way of example, 0.1 N NaOH was added to 2 mL of 2.5% peptide solutions and their pH and appearance were measured.
# [2] = Salt ionic strength plus pH adjustment: appearance and rheological properties
# Description: In accordance with one or more embodiments, IEIK13 (SEQ ID NO:2), KLD12 (SEQ ID NO:3), and PuraMatrix® (SEQ ID NO:1) may be dissolved both in salt buffer such as NaCl and at an elevated pH level adjusted with alkali salt buffer such as NaOH to keep their salt ionic strength under their critical salt points as well as their pH level to about 2.5˜4.0, so that they may have stiffer properties. With respect to PuraMatrix® (SEQ ID NO:1), […] and IEIK13 (SEQ ID NO:2), the peptide solutions are still clear with 0.9% NaCl (ionic strength: 0.15 M) at pH 3.4 adjusted with NaOH. The rheological property of PuraMatrix® (SEQ ID NO:1) with 0.9% NaCl (ionic strength: 0.15 M) at pH 3.4 was stiffer than those of PuraMatrix® (SEQ ID NO:1) control and PuraMatrix® (SEQ ID NO:1) with only NaCl 0.9%. The effect of salt ionic strength and pH adjustment on the rheological properties of PuraMatrix® (SEQ ID NO:1) 2.5% solution are shown in FIG. 20. Frequency sweep tests were performed from 1 rad/sec to 10 rad/sec at 1 Pa and the storage modulus at 1 rad/sec was selected for data.
# [3] = Gelation of peptide solutions after saline buffer treatment, time sweep test; details: saline buffer (0.15 M of NaCl), no pH change; IEIK13 1.5%, KLD12 1.5%, PuraMatrix 2.5%
# Description: The effect of salt ionic strength level surrounding peptides in solution on the properties of peptide solutions was evaluated to identify the possibility of peptide gelation when the peptide solution is placed into the environment where salt ionic strength level is high. […] Without pH effect, the effect of saline treatment on gelation of peptide solutions were evaluated. […] This is because IEIK13 (SEQ ID NO:2) is much more sensitive to salt ionic strength levels. Fast gelation of IEIK13 (SEQ ID NO:2) at the salt ionic strength level similar to body fluid isotonic salt level may generally improve its function and gelation speed for various clinical applications. The results are shown in FIG. 19 for IEIK13 (SEQ ID NO:2), KLD12 (SEQ ID NO:3) and PuraMatrix® (SEQ ID NO:1) solutions. Time sweep tests were performed at 1 rad/sec and at 1 Pa with 20 mm plates and 500 μm gap distance. […]
# [4] = Appearance of 1.5% peptide solutions with various salts at room temperature; details: for Appearance: room temperature
# Description: The effect of salt ionic strength level on the properties of peptide solutions was evaluated to identify optimized salt ionic strength levels for the peptides as described herein. Increasing the salt ionic strength level of PuraMatrix® (SEQ ID NO:1) and other peptides may generally improve its function and mechanical strength for various clinical applications. To adjust the salt ionic strength of the peptide solutions by way of example, various salt buffer solutions including NaCl, KCl, MgCl2, CaCl2 and DPBS (10×) were added to 2 mL of 1.5% peptide solutions.
substance,measurement,setting,value
Arg-Ala-Asp-Ala-Arg-Ala-Asp-Ala-Arg-Ala-Asp-Ala-Arg-Ala-Asp-Ala [PuraMatrix ®],Appearance,"[1]; 0.1N NaOH 150 μL/mL added in 2.5% solution, conc. 2.17%","Clear, thick, stiffer gel"
same,Appearance,"[1]; 0.1N NaOH 200 μL/mL added in 2.5% solution, conc. 2.08%","Clear, thick, stiffer gel"
same,Appearance,"[1]; 0.1N NaOH 250 μL/mL added in 2.5% solution, conc. 2.0%","Clear, thick, stiffer gel"
same,Appearance,"[1]; 0.1N NaOH 275 μL/mL added in 2.5% solution, conc. 1.96%","Clear, thick, stiffer gel"
same,Appearance,"[1]; 0.1N NaOH 300 μL/mL added in 2.5% solution, conc. 1.92%","Slightly cloudy, brittle gel"
same,Appearance,"[1]; 0.1N NaOH 350 μL/mL added in 2.5% solution, conc. 1.85%","Cloudy, phase-separated"
same,Peptide solution pH,[1]; NaOH volume and conc. not given,7.0
same,Appearance,"[1]; peptide solution pH 7.0, NaOH volume and conc. not given","Cloudy, phase-separated"
same,appearance of peptide solutions,[2]; 0.9% NaCl (ionic strength: 0.15 M) at pH 3.4 adjusted with NaOH,still clear
same,rheological property versus control and versus only NaCl 0.9%,"[2]; 2.5% solution, 0.9% NaCl (ionic strength: 0.15 M) at pH 3.4",stiffer
same,gelation after saline buffer treatment,[3],no or negligible gelation
same,critical salt ionic strengths at which peptides become cloudy,[4],0.9˜1.2 M
same,Appearance,"[4]; CaCl2 0 M, ionic strength 0 M, conc. 1.5%","Clear, thick gel"
same,Appearance,"[4]; CaCl2 0.05 M, ionic strength 0.15 M, conc. 1.48%","Clear, thick, stiffer gel"
same,Appearance,"[4]; CaCl2 0.1 M, ionic strength 0.3 M, conc. 1.45%","Clear, thick, stiffer gel"
same,Appearance,"[4]; CaCl2 0.15 M, ionic strength 0.45 M, conc. 1.43%","Clear, thick, stiffer gel"
same,Appearance,"[4]; CaCl2 0.2 M, ionic strength 0.6 M, conc. 1.4%","Clear, thick, stiffer gel"
same,Appearance,"[4]; CaCl2 0.25 M, ionic strength 0.75 M, conc. 1.38%","Clear, thick, stiffer gel"
same,Appearance,"[4]; CaCl2 0.3 M, ionic strength 0.9 M, conc. 1.35%","Clear, thick, stiffer gel"
same,Appearance,"[4]; CaCl2 0.35 M, ionic strength 1.05 M, conc. 1.32%","Clear, thick, stiffer gel"
same,Appearance,"[4]; CaCl2 0.383 M, ionic strength 1.15 M, conc. 1.31%","Clear, thick, stiffer gel"
same,Appearance,"[4]; CaCl2 0.4 M, ionic strength 1.2 M, conc. 1.3%","Slightly cloudy, thick, stiffer gel"
same,Appearance,"[4]; CaCl2 0.417 M, ionic strength 1.25 M, conc. 1.29%","Slightly cloudy, brittle gel"
same,Appearance,"[4]; CaCl2 0.433 M, ionic strength 1.3 M, conc. 1.28%","Cloudy, phase-separated"
same,Appearance,"[4]; DPBS (pH 3.2) 0 M, ionic strength 0 M, conc. 1.5%","Clear, thick gel"
same,Appearance,"[4]; DPBS (pH 3.2) 0.15 M, ionic strength 0.15 M, conc. 1.35%","Clear, thick, stiffer gel"
same,Appearance,"[4]; DPBS (pH 3.2) 0.3 M, ionic strength 0.3 M, conc. 1.2%","Clear, thick, stiffer gel"
same,Appearance,"[4]; DPBS (pH 3.2) 0.45 M, ionic strength 0.45 M, conc. 1.05%","Clear, thick, stiffer gel"
same,Appearance,"[4]; DPBS (pH 3.2) 0.6 M, ionic strength 0.6 M, conc. 0.9%","Clear, thick, stiffer gel"
same,Appearance,"[4]; DPBS (pH 3.2) 0.75 M, ionic strength 0.75 M, conc. 0.75%","Clear, thick, stiffer gel"
same,Appearance,"[4]; DPBS (pH 3.2) 0.9 M, ionic strength 0.9 M, conc. 0.6%","Clear, thick, stiffer gel"
same,Appearance,"[4]; DPBS (pH 3.2) 0.95 M, ionic strength 0.95 M, conc. 0.55%","Slightly cloudy, brittle gel"
same,Appearance,"[4]; DPBS (pH 3.2) 1.0 M, ionic strength 1.0 M, conc. 0.5%","Cloudy, phase-separated"
same,Appearance,"[4]; KCl 0 M, ionic strength 0 M, conc. 1.5%","Clear, thick gel"
same,Appearance,"[4]; KCl 0.15 M, ionic strength 0.15 M, conc. 1.43%","Clear, thick, stiffer gel"
same,Appearance,"[4]; KCl 0.3 M, ionic strength 0.3 M, conc. 1.35%","Clear, thick, stiffer gel"
same,Appearance,"[4]; KCl 0.45 M, ionic strength 0.45 M, conc. 1.27%","Clear, thick, stiffer gel"
same,Appearance,"[4]; KCl 0.6 M, ionic strength 0.6 M, conc. 1.2%","Clear, thick, stiffer gel"
same,Appearance,"[4]; KCl 0.75 M, ionic strength 0.75 M, conc. 1.13%","Clear, thick, stiffer gel"
same,Appearance,"[4]; KCl 0.9 M, ionic strength 0.9 M, conc. 1.05%","Clear, thick, stiffer gel"
same,Appearance,"[4]; KCl 0.95 M, ionic strength 0.95 M, conc. 1.03%","Clear, thick, stiffer gel"
same,Appearance,"[4]; KCl 1.0 M, ionic strength 1.0 M, conc. 1.0%","Clear, thick, stiffer gel"
same,Appearance,"[4]; KCl 1.05 M, ionic strength 1.05 M, conc. 0.98%","Slightly cloudy, thick, stiffer gel"
same,Appearance,"[4]; KCl 1.1 M, ionic strength 1.1 M, conc. 0.95%","Slightly cloudy, brittle gel"
same,Appearance,"[4]; KCl 1.15 M, ionic strength 1.15 M, conc. 0.93%","Cloudy, phase-separated"
same,Appearance,"[4]; MgCl2 0 M, ionic strength 0 M, conc. 1.5%","Clear, thick gel"
same,Appearance,"[4]; MgCl2 0.05 M, ionic strength 0.15 M, conc. 1.48%","Clear, thick, stiffer gel"
same,Appearance,"[4]; MgCl2 0.1 M, ionic strength 0.3 M, conc. 1.45%","Clear, thick, stiffer gel"
same,Appearance,"[4]; MgCl2 0.15 M, ionic strength 0.45 M, conc. 1.43%","Clear, thick, stiffer gel"
same,Appearance,"[4]; MgCl2 0.2 M, ionic strength 0.6 M, conc. 1.4%","Clear, thick, stiffer gel"
same,Appearance,"[4]; MgCl2 0.25 M, ionic strength 0.75 M, conc. 1.38%","Clear, thick, stiffer gel"
same,Appearance,"[4]; MgCl2 0.3 M, ionic strength 0.9 M, conc. 1.35%","Clear, thick, stiffer gel"
same,Appearance,"[4]; MgCl2 0.35 M, ionic strength 1.05 M, conc. 1.32%","Clear, thick, stiffer gel"
same,Appearance,"[4]; MgCl2 0.383 M, ionic strength 1.15 M, conc. 1.31%","Clear, thick, stiffer gel"
same,Appearance,"[4]; MgCl2 0.4 M, ionic strength 1.2 M, conc. 1.3%","Slightly cloudy, thick, stiffer gel"
same,Appearance,"[4]; MgCl2 0.417 M, ionic strength 1.25 M, conc. 1.29%","Slightly cloudy, brittle gel"
same,Appearance,"[4]; MgCl2 0.433 M, ionic strength 1.3 M, conc. 1.28%","Cloudy, phase-separated"
same,Appearance,"[4]; NaCl 0 M, ionic strength 0 M, conc. 1.5%","Clear, thick gel"
same,Appearance,"[4]; NaCl 0.15 M, ionic strength 0.15 M, conc. 1.43%","Clear, thick, stiffer gel"
same,Appearance,"[4]; NaCl 0.3 M, ionic strength 0.3 M, conc. 1.35%","Clear, thick, stiffer gel"
same,Appearance,"[4]; NaCl 0.45 M, ionic strength 0.45 M, conc. 1.27%","Clear, thick, stiffer gel"
same,Appearance,"[4]; NaCl 0.6 M, ionic strength 0.6 M, conc. 1.2%","Clear, thick, stiffer gel"
same,Appearance,"[4]; NaCl 0.75 M, ionic strength 0.75 M, conc. 1.13%","Clear, thick, stiffer gel"
same,Appearance,"[4]; NaCl 0.8 M, ionic strength 0.8 M, conc. 1.10%","Clear, thick, stiffer gel"
same,Appearance,"[4]; NaCl 0.85 M, ionic strength 0.85 M, conc. 1.08%","Clear, thick, stiffer gel"
same,Appearance,"[4]; NaCl 0.9 M, ionic strength 0.9 M, conc. 1.05%","Slightly cloudy, brittle gel"
same,Appearance,"[4]; NaCl 0.95 M, ionic strength 0.95 M, conc. 1.03%","Cloudy, phase-separated"
same,Appearance,"[4]; NaCl 1.0 M, ionic strength 1.0 M, conc. 1.0%","Cloudy, phase-separated"
same,"salt ionic strength increase that did not change the clear color, while apparent stiffness increased","[4]; depending on different salts, 1.5% peptide solutions",0.85˜1.15 M
